{"source": "patent US20170360875A1", "about": "(priority 2014, published 2017)", "molecular_target": "Sudan Ebolavirus, Boniface (Bei Resources NR-31810; sonicated, gamma-irradiated infected Vero E6 cell pellets)", "note": "Several values for one entry are separate records, joined by “and”; a condition that tells them apart may be missing. Equal values may be shown once."}
{"substance": "preformed immune complex of peroxidase-rabbit anti-peroxidase IgG (PAP complex) (from UniProt P00433 31-338)", "values": [{"measurement": "OD 405 nm", "result": "1.42 OD 405 nm and 1.29 OD 405 nm and 1.08 OD 405 nm"}]}
